The results in this text go back to paper PMC10636607 (Cell Reports, 2023).

The target in test [1] is His6-tagged SARS-CoV-2 receptor-binding domain (SARS-CoV-2, UniProt P0DTC2). Kind of test: BLI. To be noted: both partners purified.
The target of test [2] is biotinylated SARS-CoV-2 fusion peptide (SARS-CoV-2, biotin on the N-terminus). In words: BLI. The following applies: both partners purified.

B1: GAR12 Fab VL D50K (Fab, V domains shown)
VH: EVQLVQSGGGLVQPGGSLRLSCAASGFTFSSYAMSWVRQAPGKGLEWVLSISGSGGSTYYADSVKGRFTISIDNSKKTVYLQMNSLRAEDTAVYYCAKSGEQQLVQAEYFHHWGQGTLVTVSS
VL: DIQMTQSPSTLSASVGDRVTITCRASQSIGRWLAWYQQKPGKAPKLLIYKASSLESGVPSRFSGSGFGTEFTLTISSLQPDDFATYYCQQCDSLLTFGGGTKLEIK
Consider B1, for which the “fold change in KD against the wild-type Fab” value in test [1] was found to be 44 fold.

B2: COV44-62 Fab VH R50W (Fab, V domains shown)
VH: QMQLMQSGAEVKKPGASVTVSCKASGDTFSDYRIHWVRQAPGQGLEWMGWMNPKSGDTNFAQKFQGRVTMTRDMSINTAYMTLSGLTFDDTALYYCASLLIVGGFDPLDDFEVWGQGTMVTISS
VL: QSALTQPPSASGSPGQSVTISCSGTSSDVGGYNFVSWYQHHPGKAPKILIYEVTKRPSGVPDRFSGSKSGNTASLTVSGLQAEDEADYYCSSYGGTNNLLFGGGTKLTVL
For B2, the binding result in test [2] is “no binding (tested: 33 nM, 100 nM, and 300 nM)”.
